# Measurements taken from the Human Domainome abundance scans (Beltran et al. 2025).
# ± gives the uncertainty stated by the source.
# B1: Nucleosome-remodeling factor subunit BPTF, residues 2862 to 2918; numbered along this chain, Q12830 (parent)
# chain: TKKDTKLYCICKTPYDESKFYIGCDRCQNWYHGRCVGILQSEAELIDEYVCPQCQST
# Variants of: B1
# Assay: abundance fitness (aPCA) (normalised: wild type 0, dead -1); higher = more abundant; growth selection in yeast, the domain comes from the species named
# Conditions: Homo sapiens
row,Variant,abundance fitness
1,TKKDTKLYCICKTPYDESKFYIGCDRCQNWYHGRCVGILQSEAELIDEYVCPQCQRT [S56R],0.074 ± 0.35
2,TKKDTKLYCICKTPYDESKFYIGCDRCQNWYHGRCVGILQSEAELIDEYVCPQCQNT [S56N],0.269 ± 0.4
3,TKKDTKLYCICKTPYDESKFYIGCDRCQNWYHGRCVGILQSEAELIDEYVCPQCQWT [S56W],-0.554 ± 0.47
4,TKKDTKLYCICKTPYDESKFYIGCDRCQNWYHGRCVGILQSEAELIDEYVCPQCQYT [S56Y],-0.191 ± 0.45
5,TKKDTKLYCICKTPYDESKFYIGCDRCQNWYHGRCVGILQSEAELIDEYVCPQCQGT [S56G],-0.195 ± 0.27
6,TKKDTKLYCICKTPYDESKFYIGCDRCQNWYHGRCVGILQSEAELIDEYVCPQCQKT [S56K],-0.03 ± 0.39
7,TKKDTKLYCICKTPYDESKFYIGCDRCQNWYHGRCVGILQSEAELIDEYVCPQCQFT [S56F],-0.063 ± 0.22
8,TKKDTKLYCICKTPYDESKFYIGCDRCQNWYHGRCVGILQSEAELIDEYVCPQKQST [C54K],-0.613 ± 0.1
9,TKKDTKLYCICKTPYDESKFYIGCDRCQNWYHGRCVGILQSEAELIDEYVCPQNQST [C54N],-0.802 ± 0.16
10,TKKDTKLYCICKTPYDESKFYIGCDRCQNWYHGRCVGILQSEAELIDEYVCPQMQST [C54M],-0.648 ± 0.11
11,TKKDTKLYCICKTPYDESKFYIGCDRCQNWYHGRCVGILQSEAELIDEYVCPQYQST [C54Y],-0.983 ± 0.13
12,TKKDTKLYCICKTPYDESKFYIGCDRCQNWYHGRCVGILQSEAELIDEYVCPQRQST [C54R],-0.875 ± 0.1
13,TKKDTKLYCICKTPYDESKFYIGCDRCQNWYHGRCVGILQSEAELIDEYVCPQSQST [C54S],-0.889 ± 0.085
14,TKKDTKLYCICKTPYDESKFYIGCDRCQNWYHGRCVGILQSEAELIDEYVCPQVQST [C54V],-0.934 ± 0.1
15,TKKDTKLYCICKTPYDESKFYIGCDRCQNWYHGRCVGILQSEAELIDEYVCPQPQST [C54P],-0.64 ± 0.12
16,TKKDTKLYCICKTPYDESKFYIGCDRCQNWYHGRCVGILQSEAELIDEYVCPQTQST [C54T],-1.01 ± 0.12
17,TKKDTKLYCICKTPYDESKFYIGCDRCQNWYHGRCVGILQSEAELIDEYVCPQWQST [C54W],-0.802 ± 0.12
18,TKKDTKLYCICKTPYDESKFYIGCDRCQNWYHGRCVGILQSEAELIDEYVCPQCQSP [T57P],-0.044 ± 0.16
19,TKKDTKLYCICKTPYDESKFYIGCDRCQNWYHGRCVGILQSEAELIDEYVCPQCQSM [T57M],-0.509 ± 0.36
20,TKKDTKLYCICKTPYDESKFYIGCDRCQNWYHGRCVGILQSEAELIDEYVCPQCQSI [T57I],-0.115 ± 0.1
21,TKKDTKLYCICKTPYDESKFYIGCDRCQNWYHGRCVGILQSEAELIDEYVCPQCQSG [T57G],-0.16 ± 0.18
22,TKKDTKLYCICKTPYDESKFYIGCDRCQNWYHGRCVGILQSEAELIDEYVCPQCQSH [T57H],-0.172 ± 0.32
23,TKKDTKLYCICKTPYDESKFYIGCDRCQNWYHGRCVGILQSEAELIDEYVCPQCQSS [T57S],0.068 ± 0.11
24,TKKDTKLYCICKTPYDESKFYIGCDRCQNWYHGRCVGILQSEAELIDEYVCPQCQSL [T57L],-0.569 ± 0.28

row,Variant,abundance fitness
1,TKKDTKLYCICKTPYDESKFYIGCDRCQNWYHGRCVGILQSEAELIDEYVCPQCQSQ [T57Q],-0.469 ± 0.43
2,TKKDTKLYCICKTPYDESKFYIGCDRCQNWYHGRCVGILQSEAELIDEYVCPQCQSR [T57R],-0.106 ± 0.17
3,TKKDTKLYCICKTPYDESKFYIGCDRCQNWYHGRCVGILQSEAELIDEYVCPQCQSA [T57A],0.024 ± 0.091
4,TKKDTKLYCICKTPYDESKFYIGCDRCQNWYHGRCVGILQSEAELIDEYVCPQCQSE [T57E],-0.022 ± 0.21
5,TKKDTKLYCICKTPYDESKFYIGCDRCQNWYHGRCVGILQSEAELIDEYVCPQCQSC [T57C],-0.003 ± 0.24
6,TKKDTKLYCICKTPYDESKFYIGCDRCQNWYHGRCVGILQSEAELIDEYVCPQCPST [Q55P],-0.101 ± 0.094
7,TKKDTKLYCICKTPYDESKFYIGCDRCQNWYHGRCVGILQSEAELIDEYVCPQCVST [Q55V],-0.18 ± 0.08
8,TKKDTKLYCICKTPYDESKFYIGCDRCQNWYHGRCVGILQSEAELIDEYVCPQCFST [Q55F],-0.375 ± 0.13
9,TKKDTKLYCICKTPYDESKFYIGCDRCQNWYHGRCVGILQSEAELIDEYVCPQCCST [Q55C],-0.072 ± 0.09
10,TKKDTKLYCICKTPYDESKFYIGCDRCQNWYHGRCVGILQSEAELIDEYVCPQCEST [Q55E],0.01 ± 0.094
11,TKKDTKLYCICKTPYDESKFYIGCDRCQNWYHGRCVGILQSEAELIDEYVCPQCMST [Q55M],-0.188 ± 0.095
12,TKKDTKLYCICKTPYDESKFYIGCDRCQNWYHGRCVGILQSEAELIDEYVCPQCGST [Q55G],-0.187 ± 0.075
13,TKKDTKLYCICKTPYDESKFYIGCDRCQNWYHGRCVGILQSEAELIDEYVCPQCTST [Q55T],-0.196 ± 0.076
14,TKKDTKLYCICKTPYDESKFYIGCDRCQNWYHGRCVGILQSEAELIDEYVCPQCYST [Q55Y],-0.474 ± 0.13
15,TKKDTKLYCICKTPYDESKFYIGCDRCQNWYHGRCVGILQSEAELIDEYVCPQCWST [Q55W],-0.245 ± 0.099
16,TKKDTKLYCICKTPYDESKFYIGCDRCQNWYHGRCVGILQSEAELIDEYVCPQCLST [Q55L],-0.157 ± 0.078
17,TKKDTKLYCICKTPYDESKFYIGCDRCQNWYHGRCVGILQSEAELIDEYVCPQCKST [Q55K],0.021 ± 0.11
18,TKKDTKLYCICKTPYDESKFYIGCDRCQNWYHGRCVGILQSEAELIDEYVCPQCAST [Q55A],-0.025 ± 0.084
19,TKKDTKLYCICKTPYDESKFYIGCDRCQNWYHGRCVGILQSEAELIDEYVCPQCIST [Q55I],-0.141 ± 0.12
20,TKKDTKLYCICKTPYDESKFYIGCDRCQNWYHGRCVGILQSEAELIDEYVCPQCRST [Q55R],-0.142 ± 0.068
21,TKKDTKLYCICKTPYDESKFYIGCDRCQNWYHGRCVGILQSEAELIDEYVCPQCDST [Q55D],0.174 ± 0.1
22,TKKDTKLYCICKTPYDESKFYIGCDRCQNWYHGRCVGILQSEAELIDEYVCPQCNST [Q55N],-0.09 ± 0.12
23,TKKDTKLYCICKTPYDESKFYIGCDRCQNWYHGRCVGILQSEAELIDEYVCPQCHST [Q55H],-0.167 ± 0.12
